Data: IntAct's records for PubMed 32873725

B1: Phospholamban (Mus musculus), P61014 (parent)
chain: MEKVQYLTRSAIRRASTIEMPQQARQNLQNLFINFCLILICLLLICIIVMLL

Variants of: B1
Details: with kcc2d_human CAMK2D

Variant	effect of a mutation on the interaction
MEKVQYLTRSAIRRAATIEMPQQARQNLQNLFINFCLILICLLLICIIVMLL	with no effect
